Results on 1 molecule are retold here after patent publication US20220096649A1.

The target in experiment [1] is SIRP-α human v1 (human) (UniProt P78324). The experiment in a line: SPR, antibody on GLC chip, SIRP as analyte.
Experiment [2] concerns the target SIRP-α mouse NOD (mouse (NOD)) (UniProt P97797). The experiment in a line: SPR, antibody on GLC chip, SIRP as analyte; Mouse NOD SIRP-α allele.
Experiment [3] addresses SIRP-α mouse BALBc (mouse (BALBc)) (UniProt P97797). The experiment in a line: SPR, antibody on GLC chip, SIRP as analyte; Mouse BALBc SIRP-α allele.

Sequence of SIRP-α human v1 (human) (P78324 31-149): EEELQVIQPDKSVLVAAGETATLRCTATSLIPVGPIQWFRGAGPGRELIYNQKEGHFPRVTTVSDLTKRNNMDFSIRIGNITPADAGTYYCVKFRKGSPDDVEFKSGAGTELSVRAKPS

B1: Hum9/AB21_HC_Mutall (antibody, V domains shown)
VH: EVQLVESGGGVVQPGGSLRLSCAASGFTFSSNAMSWVRQAPGKGLEWVAGISAGGSDTYYPASVKGRFTISRDNSKNTLYLQMNSLRAEDTAVYYCARETWNHLFDYWGQGTLVTVSS
VL: SYELTQPPSVSVSPGQTARITCSGGAYSSYYYAWYQQKPGQAPVLVIYSDDKRPSGIPERFSGSSSGTTVTLTISGVQAEDEADYYCGGYDQSSYTNPFGGGTKLTVL
As a reminder, the Kd is the equilibrium constant for the complex coming apart. Low readings indicate a tighter complex, high ones a looser complex. Take B1: the Kd came out at 0.012 nM in experiment [1], 24 nM in experiment [2] and 140 nM in experiment [3].
